For one assay, the target named is T1, CD19 expressed on cells (UniProt P15391 20-556, limits assumed).
T1 construct: whole, on cells; also called CD19 over-expression cell line; CD19 over-expressing cells
T1 sequence (looked up): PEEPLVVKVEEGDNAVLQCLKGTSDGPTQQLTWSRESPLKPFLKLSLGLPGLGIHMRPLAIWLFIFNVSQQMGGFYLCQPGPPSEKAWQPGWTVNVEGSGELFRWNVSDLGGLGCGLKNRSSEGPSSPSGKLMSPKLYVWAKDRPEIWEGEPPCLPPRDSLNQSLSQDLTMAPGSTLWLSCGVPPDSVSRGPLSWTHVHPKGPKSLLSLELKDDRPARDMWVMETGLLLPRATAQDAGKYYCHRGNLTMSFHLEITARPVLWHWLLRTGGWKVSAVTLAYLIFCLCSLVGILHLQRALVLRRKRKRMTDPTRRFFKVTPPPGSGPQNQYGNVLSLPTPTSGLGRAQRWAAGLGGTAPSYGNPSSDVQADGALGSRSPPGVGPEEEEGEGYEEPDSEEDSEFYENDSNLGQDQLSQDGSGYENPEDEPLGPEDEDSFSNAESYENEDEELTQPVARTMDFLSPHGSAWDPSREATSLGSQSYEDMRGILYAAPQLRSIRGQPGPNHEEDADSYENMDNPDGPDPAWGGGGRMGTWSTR
The assay can be described thus: flow cytometry on CHO/K1-CD19 cells; unit taken from the axis 'Conc.(nM)'; the curve is still rising at the last point (MFI about 5000 at about 400 nM).

The target in assay [1] is mesothelin (MSLN) expressed on cells (UniProt Q13421). The assay can be described thus: flow cytometry on 293T-MSLN-Full cells; unit taken from the axis 'Conc.(nM)'. For orientation: A flow cytometer gives signals particle by particle.
Assay [2] addresses T2, EGFR expressed on cells (UniProt P00533 25-1210, limits assumed).
T2 construct: whole, on cells; also called HEK293T-EGFR cell line; EGFR over-expressing cells
The assay can be described thus: flow cytometry on HEK293T-EGFR cells (cell line from paragraph 185); unit taken from the axis 'Concentration (nM)'.

The target in a further assay is EGFR His antigen (UniProt P00533 25-645). The assay can be described thus: SPR as in Example 2, EGFR His antigen.
The target in assay [3] is T2, EGFR expressed on cells. As to the kind of experiment: flow cytometry on 293T-EGFR cells; unit taken from the axis 'Conc.(nM)'.
Another assay deals with T3, BCMA expressed on cells (UniProt Q02223 1-184, limits assumed).
T3 construct: whole, on cells; also called CHOK1-BCMA cell line; BCMA over-expression cell line
T3 sequence (looked up): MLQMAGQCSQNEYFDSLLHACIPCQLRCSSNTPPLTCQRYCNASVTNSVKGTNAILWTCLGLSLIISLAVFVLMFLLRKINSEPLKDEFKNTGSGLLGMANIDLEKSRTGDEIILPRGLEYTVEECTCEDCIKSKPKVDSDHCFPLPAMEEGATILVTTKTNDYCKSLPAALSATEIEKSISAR
As to the kind of experiment: flow cytometry on CHOK1-BCMA cells; unit taken from the axis 'Concentration (nM)'.

The next assay concerns the target T4, BCMA-His antigen (UniProt Q02223 1-54).
T4 construct: also called BMCA antigen
T4 sequence (looked up): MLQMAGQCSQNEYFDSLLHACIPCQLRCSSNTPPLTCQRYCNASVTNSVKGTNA
The assay can be described thus: SPR as in Example 2, BCMA-His antigen.

Sequence of mesothelin (MSLN) expressed on cells (Q13421 other isoform, or with tags, fused parts or gaps limits assumed): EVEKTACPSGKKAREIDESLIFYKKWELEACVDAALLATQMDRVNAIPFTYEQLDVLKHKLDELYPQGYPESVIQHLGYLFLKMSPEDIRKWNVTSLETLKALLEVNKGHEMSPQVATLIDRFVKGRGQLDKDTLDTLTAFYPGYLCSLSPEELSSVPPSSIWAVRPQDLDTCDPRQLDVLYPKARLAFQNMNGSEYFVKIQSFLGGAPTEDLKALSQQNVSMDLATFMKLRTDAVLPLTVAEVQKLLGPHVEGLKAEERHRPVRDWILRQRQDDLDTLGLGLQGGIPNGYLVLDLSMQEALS

B1: TCP011-P (bispecific antibody)
chain: QLQLGASGGGLVQPGGSLRLSCALSGFTLRELDEFAIGWFRQAPGKEREGVSCISGTGGITHYADSVKGRFTISRDIAKTTVYLQMNSLNSEDTAVYYCAADERCTDRLIRPPTYWGQGTQVTVSSGGGGSGGGGSGGGGSDIQMTQTTSSLSASLGDRVTISCRASQDISKYLNWYQQKPDGTVKLLIYHTSRLHSGVPSRFSGSGSGTDYSLTISNLEQEDIATYFCQQGNTLPYTFGGGTKLEITKAGGGGSGGGGSGGGGSEVKLQESGPGLVAPSQSLSVTCTVSGVSLPDYGVSWIRQPPRKGLEWLGVIWGSETTYYNSALKSRLTIIKDNSKSQVFLKMNSLQTDDTAIYYCAKHYYYGGSYAMDYWGQGTSVTVSSGGGGSEQKLISEEDLGGGGSHHHHHH
notes: also called CD19-TCP; anti-M-ICAP VHH (M2339) - 3xGGGGS linker - anti-CD19 scFv (FMC063) - Myc and HIS
Turning to B1, the EC50 – broadly, the concentration giving half of the maximal effect – with CD19 expressed on cells is 40.9 nM; in assay [1], 17.1 nM.

B2: E454(VHH), hFc fusion (Fc fusion)
chain: QVQLVESGGGLVQPGGSLNLSCAASGFDFSSVTMSWHRQSPGKERETVAVISNIGNRNVGSSVRGRFTISRDNKKQTVHLQMDNLKPEDTGIYRCKAWGLDLWGPGTQVTVSS
notes: also called anti-EGFR VHH (E454(VHH)); not shown: human Fc
B2 yielded an EC50 with EGFR expressed on cells [2] of 6.51 nM. In addition, in the assay with EGFR His antigen, binding was characterised by a dissociation constant (Kd) of 1.27 nM; the koff (in general, a measure of how fast the partners let go of each other) stood at 2.48e-05 s⁻¹; the kon – broadly, the rate constant with which the complex forms – was found to be 19500 M⁻¹ s⁻¹.

B3: TCP021-P (bispecific antibody)
chain: QLQLGASGGGLVQPGGSLRLSCALSGFTLRELDEFAIGWFRQAPGKEREGVSCISGTGGITHYADSVKGRFTISRDIAKTTVYLQMNSLNSEDTAVYYCAADERCTDRLIRPPTYWGQGTQVTVSSGGGGSGGGGSGGGGSQVQLVESGGGLVQPGGSLNLSCAASGFDFSSVTMSWHRQSPGKERETVAVISNIGNRNVGSSVRGRFTISRDNKKQTVHLQMDNLKPEDTGIYRCKAWGLDLWGPGTQVTVSSGGGGSEQKLISEEDLGGGGSHHHHHH
notes: also called EGFR-TCP; anti-M-ICAP VHH (M2339) - 3xGGGGS linker - anti-EGFR VHH (E454(VHH)) - Myc and HIS
Consider B3, for which the EC50 came out at 28.6 nM in the assay with EGFR expressed on cells [3] and 35.6 nM in assay [1].

B4: B029(VHH), hFc fusion (Fc fusion)
chain: QVQLVESGGGLVQPGGSLRLSCAASGSITSIYAIGWYRQAPGKLRELVAAITTSGNTFYRDSVKGRFTISRDNAKNTVSLQMNSLKSEDTAVYDCNGAPWGDHAPLVVSWDQGTQVTVSS
notes: not shown: human Fc
Turning to B4, the 50% effective concentration (EC50) with BCMA expressed on cells amounted to 1.68 nM. Further, in the assay with BCMA-His antigen, the equilibrium dissociation constant (Kd) (in general, the constant that tells how readily two partners part at equilibrium) is 0.125 nM; the off-rate constant (koff) came out at 0.000365 s⁻¹; the kon is 2.92e+06 M⁻¹ s⁻¹.
